In paper PMC12227774:

Experiments:
YBX3 CSD = YBX3 CSD (human, UniProt P16989 82-174); test: BLI
YBX1 CSD = YBX1 CSD (human, UniProt P67809 48-159); test: BLI
Chain of YBX1 CSD (P67809 48-159): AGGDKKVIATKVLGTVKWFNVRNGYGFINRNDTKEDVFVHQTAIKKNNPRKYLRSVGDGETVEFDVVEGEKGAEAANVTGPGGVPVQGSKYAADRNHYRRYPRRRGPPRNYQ

Chain of YBX3 CSD (P16989 82-174): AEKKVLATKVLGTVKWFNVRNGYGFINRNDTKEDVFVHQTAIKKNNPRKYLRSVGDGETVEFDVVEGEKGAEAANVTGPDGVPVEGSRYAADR

| Binder | Kd (YBX3 CSD) | Kd (YBX1 CSD) |
| --- | --- | --- |
| GGAGGCCACCUCUCCAAGGGCUUCU (structured_RNA, none) [FURIN-25nt] | 87.5 nM | 346 nM |
| GGAGGCCACCUCUCCAAGGGCUUCU (structured_RNA, m5C at position 12 (NSUN6-methylated)) [FURIN-25nt-m5C] | 45 nM | 214 nM |
